Assay results published in patent US20180215825A1 (BEIGENE, published 2018).
Residue numbers refer to the chain shown, from its start. Each block holds one binder with its values, some of them ahead of it.

Legend:
[1] = target: T1, FcγRIIAR131 extracellular domain, His tag (human, UniProt P12318 34-217); assay: ELISA, FcγR-His coated, preformed immune complex; normalized to hu333-4A2-IgG1wt
T1 construct: extracellular domain
T1 sequence (looked up): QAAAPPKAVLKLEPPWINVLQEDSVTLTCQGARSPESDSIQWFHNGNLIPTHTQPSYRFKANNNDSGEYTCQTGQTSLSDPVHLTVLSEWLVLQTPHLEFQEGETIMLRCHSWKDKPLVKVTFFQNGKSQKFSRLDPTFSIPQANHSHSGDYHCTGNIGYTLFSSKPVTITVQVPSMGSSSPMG
Protocol: (§1) The extracellular domains of FcγRs were fused to C-terminal His tags as described in previous sections. Recombinant proteins were expressed in 293-F cells by transient transfection and purified using Ni-Sepharose column followed by gel filtration column as described. 2-5 μg/mL of FcγRs were coated on Nunc MaxiSorp ELISA plates (Cat. No. 442404, Nunc, Thermo Fisher) except FcγRIIB and FcγRIIIB, Ni-chelate plates were used (Cat. No. 15242, Pierce, Thermo Fisher). After washing and blocking of the wells, a preformed immune-complex was added to each well and incubated at room temperature for 1-2 hours. […] After washing the plate four times, binding signals were detected by chemiluminescence using Immobilon Chemiluminescence Substrate A/B (Cat. No. WBKLS0500, Millipore).

[2] = target: T2, FcγRI extracellular domain, His tag (human, UniProt P12314 16-292); assay: as above
T2 construct: extracellular domain
Protocol: as §1

[3] = target: T3, FcγRIIIAF158 extracellular domain, His tag (human, UniProt P08637 17-208); assay: as above
T3 construct: extracellular domain
Protocol: as §1

[4] = target: T4, FcγRIIIAV158 extracellular domain, His tag (human, UniProt P08637 17-208); assay: as above
T4 construct: extracellular domain; also called FcγRIIIAV58
Protocol: as §1

[5] = target: T5, FcγRIIAH131 extracellular domain, His tag (human, UniProt P12318 34-217); assay: as above
T5 construct: extracellular domain
T5 sequence (looked up): T1 sequence (looked up) with R134H
Protocol: as §1

[6] = target: T1, FcγRIIAR131 extracellular domain, His …; assay: ELISA, FcγR-His coated, preformed immune complex of the mAb
Protocol: as §1

[7] = target: T2, FcγRI extracellular domain, His tag; assay: as above
Protocol: as §1

[8] = target: T3, FcγRIIIAF158 extracellular domain, His …; assay: as above
Protocol: as §1

[9] = target: T4, FcγRIIIAV158 extracellular domain, His …; assay: as above
Protocol: as §1

[10] = target: T5, FcγRIIAH131 extracellular domain, His …; assay: as above
Protocol: as §1

[11] = target: T6, human FcγRIIAH131 expressed on HEK293 cells (human, UniProt P12318 34-317); assay: FACS, monomeric mAb on FcγR-expressing HEK293 cells
T6 construct: whole, on cells
T6 sequence (looked up): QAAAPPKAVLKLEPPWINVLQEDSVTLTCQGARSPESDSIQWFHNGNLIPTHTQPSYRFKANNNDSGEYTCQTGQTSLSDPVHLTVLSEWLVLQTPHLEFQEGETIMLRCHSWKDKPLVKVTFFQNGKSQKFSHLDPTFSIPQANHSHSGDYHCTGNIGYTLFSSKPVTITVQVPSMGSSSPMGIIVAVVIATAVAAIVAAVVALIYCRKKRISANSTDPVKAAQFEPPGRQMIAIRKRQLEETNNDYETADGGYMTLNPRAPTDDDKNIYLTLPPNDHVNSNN
Protocol: (§2) Bindings of humanized anti-PD-L1 in various IgG1 formats (wt, IgG1mc, IgG1mf, SEQ. NO. 27-29) to FcγRs were also determined by flow cytometry. In brief, a series of stable HEK293 transfectants expressing human FcγRs were established. These stable cell lines expressed FcγRI, FcγRIIAH131, FcγRIIAR131, FcγRIIB, FcγRIIIAF158 or FcγRIIIAV158, respectively. Multi-subunit FcγRs (i.e., FcγRI and FcγRIIIA) were co-expressed with FcRγ subunit.

[12] = target: T7, human FcγRI expressed on HEK293 cells (human, UniProt P12314 16-374); assay: as above
T7 construct: whole, on cells; Co-expressed with FcRγ subunit
Protocol: as §2

T7 sequence (P12314 16-374): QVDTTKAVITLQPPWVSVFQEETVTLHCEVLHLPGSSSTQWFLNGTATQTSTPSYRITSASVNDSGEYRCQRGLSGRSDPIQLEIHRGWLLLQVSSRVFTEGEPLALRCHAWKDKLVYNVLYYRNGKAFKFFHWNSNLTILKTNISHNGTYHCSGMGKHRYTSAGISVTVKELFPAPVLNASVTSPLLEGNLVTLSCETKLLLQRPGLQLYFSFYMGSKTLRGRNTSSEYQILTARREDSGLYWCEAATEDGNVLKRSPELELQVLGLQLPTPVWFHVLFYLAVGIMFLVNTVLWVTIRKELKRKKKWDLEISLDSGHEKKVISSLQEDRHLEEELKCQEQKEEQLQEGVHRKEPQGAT
T2 sequence (P12314 16-292): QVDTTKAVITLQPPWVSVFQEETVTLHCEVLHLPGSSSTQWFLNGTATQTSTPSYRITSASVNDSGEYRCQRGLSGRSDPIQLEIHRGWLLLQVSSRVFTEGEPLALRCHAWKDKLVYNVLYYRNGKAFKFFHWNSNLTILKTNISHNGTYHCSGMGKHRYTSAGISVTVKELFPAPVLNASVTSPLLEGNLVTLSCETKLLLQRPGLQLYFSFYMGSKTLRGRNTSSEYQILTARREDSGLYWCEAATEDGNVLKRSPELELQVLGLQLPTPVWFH
T3 sequence (P08637 17-208): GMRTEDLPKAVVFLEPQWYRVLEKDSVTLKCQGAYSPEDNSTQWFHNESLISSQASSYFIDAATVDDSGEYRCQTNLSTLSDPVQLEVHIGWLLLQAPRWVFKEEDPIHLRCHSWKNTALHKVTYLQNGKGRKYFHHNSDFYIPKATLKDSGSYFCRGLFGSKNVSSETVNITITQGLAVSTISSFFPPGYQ
T4 sequence (P08637 17-208 F176V limits assumed): as the sequence (P08637 17-208) above, with F160V counted along it

MFI [11]: 5.78 MFI
MFI [12]: 4.29 MFI
B3: hu333-4A2-IgG1mc (antibody)
heavy: EVQLVESGGGLVQPGGSLRLSCAVSGFSLTSYGVHWVRQAPGKGLEWVAVIWAGGSTNYVDSVKGRFTISKDNAKNTVYLQMNSLRAEDTAVYYCAKPYGTSAMDYWGQGTLVTVSSASTKGPSVFPLAPSSKSTSGGTAALGCLVKDYFPEPVTVSWNSGALTSGVHTFPAVLQSSGLYSLSSVVTVPSSSLGTQTYICNVNHKPSNTKVDKKVEPKSCDKTHTCPPCPAPPAAAPSVFLFPPKPKDTLMISRTPEVTCVVVDVSHEDPEVKFNWYVDGVEVHNAKTKPREEQYNSTYRVVSVLTVLHQDWLNGKEYKCKVSNKALAAPIEKTISKAKGQPREPQVYTLPPSRDELTKNQVSLTCLVKGFYPSDIAVEWESNGQPENNYKTTPPVLDSDGSFFLYSKLTVDKSRWQQGNVFSCSVMHEALHNHYTQKSLSLSPGK
light: DIQMTQSPSSLSASVGDRVTITCKASQDVGIVVAWYQQKPGKAPKLLIYWASIRHTGVPSRFSGSGSGTEFTLTISSLQPDDFATYYCQQYSNYPLYTFGQGTKVEIKRTVAAPSVFIFPPSDEQLKSGTASVVCLLNNFYPREAKVQWKVDNALQSGNSQESVTEQDSKDSTYSLSSTLTLSKADYEKHKVYACEVTHQGLSSPVTKSFNRGEC

MFI [11]: 6.12 MFI
MFI [12]: 4.56 MFI
B4: hu333-4B2-IgG1mf (antibody)
heavy: B3 heavy with V60A, N73T, A74S, A236G
light: B3 light

The remaining lines, values behind:

B1: hu333-4A2-IgG1wt (antibody)
heavy: not shown
VL: DIQMTQSPSSLSASVGDRVTITCKASQDVGIVVAWYQQKPGKAPKLLIYWASIRHTGVPSRFSGSGSGTEFTLTISSLQPDDFATYYCQQYSNYPLYTFGQGTKVEIK
notes: light chain constant region (kappa) not tied to an entry for this form
Relative binding [1]: 100%
Relative binding [2]: 100%
Relative binding [3]: 100%
Relative binding [4]: 100%
Relative binding [5]: 100%
Chemiluminescence [6]: 50200
Chemiluminescence [7]: 42700
Chemiluminescence [8]: 36400
Chemiluminescence [9]: 57800
Chemiluminescence [10]: 54600
MFI [11]: 40.5 MFI
MFI [12]: 1170 MFI

B2: hu333-4B2-IgG1mc (antibody)
heavy: B3 heavy with V60A, N73T, A74S
light: B3 light
MFI [11]: 6.16 MFI
MFI [12]: 4.78 MFI
